According to article PMC6934807, “Development of hypoallergenic variants of the major horse allergen Equ c 1 for immunotherapy by rational structure based engineering” (Scientific Reports, 2019):

T1: recombinant Equ c 1 wild type (Equ c 1.0101) (horse)
T1 chain: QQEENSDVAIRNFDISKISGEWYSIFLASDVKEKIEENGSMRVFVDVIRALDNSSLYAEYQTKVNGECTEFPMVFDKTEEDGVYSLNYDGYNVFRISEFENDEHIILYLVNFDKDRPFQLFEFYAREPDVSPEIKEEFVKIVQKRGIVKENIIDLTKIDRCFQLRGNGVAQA

B1: Equ c 1 Triple 2 (V47K + V110E + F112K) (natural protein)
chain: QQEENSDVAIRNFDISKISGEWYSIFLASDVKEKIEENGSMRVFVDKIRALDNSSLYAEYQTKVNGECTEFPMVFDKTEEDGVYSLNYDGYNVFRISEFENDEHIILYLENKDKDRPFQLFEFYAREPDVSPEIKEEFVKIVQKRGIVKENIIDLTKIDRCFQLRGNGVAQA
B2: recombinant Equ c 1 wild type (Equ c 1.0101) (natural protein)
chain: QQEENSDVAIRNFDISKISGEWYSIFLASDVKEKIEENGSMRVFVDVIRALDNSSLYAEYQTKVNGECTEFPMVFDKTEEDGVYSLNYDGYNVFRISEFENDEHIILYLVNFDKDRPFQLFEFYAREPDVSPEIKEEFVKIVQKRGIVKENIIDLTKIDRCFQLRGNGVAQA
modifications: extra vector-derived N-terminal Ala left out; disulfide Cys68-Cys161 (mature numbering, precursor = +15); homodimer at micromolar concentration (Kd 15.6 nM) / extra vector-derived N-terminal Ala left
B3: Equ c 1 Triple 3 (E21Y + V110E + F112K) (natural protein)
chain: QQEENSDVAIRNFDISKISGYWYSIFLASDVKEKIEENGSMRVFVDVIRALDNSSLYAEYQTKVNGECTEFPMVFDKTEEDGVYSLNYDGYNVFRISEFENDEHIILYLENKDKDRPFQLFEFYAREPDVSPEIKEEFVKIVQKRGIVKENIIDLTKIDRCFQLRGNGVAQA

Experiments:
[1] = target: the molecule itself; test: cell-based or functional assay
[2] = target: T1, recombinant Equ c 1 wild type (Equ c …); test: SEC; SE-UHPLC, Acquity BEH125 SEC column, PBS (12 mM Na2HPO4, 3 mM NaH2PO4, 150 mM NaCl, pH 7.3), 2 µl of a 40 µM protein solution injected, compared with protein standards; details: both partners purified
[3] = target: T1, recombinant Equ c 1 wild type (Equ c …); test: native MS; native ESI FT-ICR MS, dilution series 0.1-4.8 µM (monomer) in 10 mM ammonium acetate, diluted samples kept four days at +4 °C, five parallel spectra per concentration; Kd from monomer and dimer ion intensities; dimer to monomers; details: both partners purified
[4] = target: the molecule itself; test: native MS; native ESI FT-ICR MS at 40 µM protein, 10 mM ammonium acetate pH 6.9; Kd of Triple 3 estimated from monomer and dimer intensities at this single concentration; dimer to monomers

Binder | EC50 of histamine release from stripped basophils passively sensitised with serum A of a horse allergic person [1] | EC50 of histamine release from stripped basophils passively sensitised with serum B of a horse allergic person [1] | EC50 of histamine release from stripped basophils passively sensitised with serum C of a horse allergic person [1] | EC50 of histamine release from stripped basophils passively sensitised with serum D of a horse allergic person [1] | EC50 of histamine release from stripped basophils passively sensitised with serum E of a horse allergic person [1] | EC50 of histamine release from stripped basophils passively sensitised with serum F (RefLab's positive control serum) [1] | EC50 of histamine release from stripped basophils, median of the six sera [1] | stoichiometry N [2] | Kd [3] | Kd [4]
B1 | 0.11 nM | 0.24 nM | 0.22 nM | 0.18 nM | 0.84 nM | 0.72 nM | 0.23 nM |  |  | 
B2 |  |  |  |  |  |  |  | 2 | 15.6 ± 0.8 nM | 
B3 | 0.29 nM | 0.42 nM | 0.52 nM | 0.26 nM | 3.7 nM | 1.1 nM | 0.47 nM |  |  | ~800000 nM
